Reference: PMC8455074 (Cancer cell, 2020)
Ends that are not written are not given here. * marks the point of attachment. Biotin = O=C1N[C@H]2[C@H](CS[C@H]2CCCCC(=O)*)N1

B1: GST-tagged PALB2 WD40 domain (domain or fragment, UniProt Q86YC2 853-1186, looked up)
chain: GNLQLVSELKNPSGSCSVDVSAMFWERAGCKEPCIITACEDVVSLWKALDAWQWEKLYTWHFAEVPVLQIVPVPDVYNLVCVALGNLEIREIRALFCSSDDESEKQVLLKSGNIKAVLGLTKRRLVSSSGTLSDQQVEVMTFAEDGGGKENQFLMPPEETILTFAEVQGMQEALLGTTIMNNIVIWNLKTGQLLKKMHIDDSYQASVCHKAYSEMGLLFIVLSHPCAKESESLRSPVFQLIVINPKTTLSVGVMLYCLPPGQAGRFLEGDVKDHCAAAILTSGTIAIWDLLLGQCTALLPPVSDQHWSFVKWSGTDSHLLAGQKDGNIFVYHYS
B2: biotinylated WT C67 (420-432) peptide (peptide)
peptide: Biotin-GGPIPQQWDESSSSS

Legend:
[1] = target: T1, His-tagged CXorf67, recombinant (human, UniProt Q86X51 1-503); test: pull-down
T1 sequence (looked up): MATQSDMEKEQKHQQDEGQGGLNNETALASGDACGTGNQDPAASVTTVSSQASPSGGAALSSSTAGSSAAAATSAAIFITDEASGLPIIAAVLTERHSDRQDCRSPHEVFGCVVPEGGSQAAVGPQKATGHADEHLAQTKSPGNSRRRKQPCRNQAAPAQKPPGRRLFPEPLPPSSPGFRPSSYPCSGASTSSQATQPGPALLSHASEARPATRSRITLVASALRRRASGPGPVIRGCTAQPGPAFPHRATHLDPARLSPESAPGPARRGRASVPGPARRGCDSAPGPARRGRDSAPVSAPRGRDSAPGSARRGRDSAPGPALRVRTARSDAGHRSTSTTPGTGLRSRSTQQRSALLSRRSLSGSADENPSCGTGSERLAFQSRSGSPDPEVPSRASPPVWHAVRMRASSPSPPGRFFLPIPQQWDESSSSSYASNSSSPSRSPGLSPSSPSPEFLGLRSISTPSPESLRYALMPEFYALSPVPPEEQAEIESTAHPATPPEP

[2] = target: B1; test: pull-down

Binder: B1
- binding result [1]: binds

Binder: B2
- binding result [2]: binds
